Drawing on publication PMC2921341, “Interaction of Serum- and Glucocorticoid Regulated Kinase 1 (SGK1) with the WW-Domains of Nedd4-2 Is Required for Epithelial Sodium Channel Regulation” (PLoS ONE, 2010), this text covers Kd for six molecules.

Where only a bound is given, the exact number is not on record here.

The experiment addresses T1, SGK PY-motif peptide (human).
T1 construct: N-terminal cysteine of the printed peptide; stretch of human SGK (SGK1) with the PY motif PPFY (Y298); also called SGK peptide; source: synthetic peptide (Auspep)
T1 peptide: H-CLYGLPPFYSRNT-NH2
The experiment can be described thus: SPR; BIAcore 2000; peptide immobilised on Sensor Chip CM5 by amine chemistry; isolated WW-domains injected at 20 µl/min in HBS-EP; KD estimated from steady state equilibrium responses. Conditions: both partners purified.

B1: Nedd4-2 WW4 (isolated WW-domain, GST removed) (domain or fragment)
chain: DLGPLPPGWEERIHLDGRTFYIDHNSKITQWEDPRLQNPAIT
A word on the Kd: it is the free concentration of one partner at which half of the binding sites on the other are occupied at equilibrium, for simple one-to-one binding. With B1, the Kd is above 600 µM.

B2: RNase (enzyme)
chain: KETAAAKFERQHMDSSTSAASSSNYCNQMMKSRNLTKDRCKPVNTFVHESLADVQAVCSQKNVACKNGQTNCYQSYSTMSITDCRETGSSKYPNCAYKTTQANKHIIVACEGNPYVPVHFDASV
In the case of B2, the equilibrium dissociation constant (Kd) was above 600 µM.

B3: Nedd4-2 WW1 (isolated WW-domain, GST removed) (domain or fragment)
chain: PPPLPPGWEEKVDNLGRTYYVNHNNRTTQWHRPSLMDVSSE
B3: the dissociation constant Kd was above 600 µM.

B4: Nedd4-2 WW2-3 (isolated protein, GST removed) (domain or fragment)
chain: TTPGLPSGWEERKDAKGRTYYVNHNNRTTTWTRPIMQLAEDGASGSATNSNNHLIEPQIRRPRSLSSPTVTLSAPLEGAKDSPVRRAVKDTLSNPQSPQPSPYNSPKPQHKVTQSFLPPGWEMRIAPNGRPFFIDHNTKTTTWEDPRLKFPVHM
As for B4, the Kd was 53.3 µM.

B5: Nedd4-2 WW2 (isolated WW-domain, GST removed) (domain or fragment)
chain: not shown
Consider B5, for which the dissociation constant (Kd) is 105 µM.

B6: Nedd4 WW3 (isolated WW-domain, GST removed) (domain or fragment, UniProt P46934 840-873, looked up)
chain: GFLPKGWEVRHAPNGRPFFIDHNTKTTTWEDPRL
notes: Nedd4 WW-domain 3 (a Nedd4 with four WW-domains); also called WW-domain 3 of Nedd4; source: E. coli BL21, GST removed with thrombin or TEV protease, purified (glutathione-Sepharose, Superdex-75)
In the case of B6, the Kd was 130 µM.
